According to patent US20160333110A1 (CHIOME BIOSCIENCE, published 2016):
Numbering of substitutions follows the chain as printed. Numbers in names are those of the source. Values belong to the binder of their own block, whether it stands above or below them.

How the values were obtained:
[1] = target: T1, human TROP-2 (hTROP-2) endogenously expressed on the cell surface of human cancer cell lines (human, UniProt P09758 27-323); test: FACS on PK-59 cells, 0.1 µg antibody
T1 construct: also called TACSTD2; PK-59 cells
T1 sequence: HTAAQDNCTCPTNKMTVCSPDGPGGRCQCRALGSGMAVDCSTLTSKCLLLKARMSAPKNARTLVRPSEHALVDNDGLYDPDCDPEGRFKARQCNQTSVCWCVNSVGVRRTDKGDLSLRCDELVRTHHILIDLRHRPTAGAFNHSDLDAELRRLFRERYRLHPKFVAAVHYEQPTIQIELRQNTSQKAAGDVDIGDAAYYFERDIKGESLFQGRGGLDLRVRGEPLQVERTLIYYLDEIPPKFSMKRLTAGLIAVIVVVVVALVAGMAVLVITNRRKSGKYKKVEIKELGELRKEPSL
Description: (§1) Cancer cells were removed from a culture dish by a trypsin treatment, and a cell suspension was then prepared (cell density: 2×10⁶ cells/mL). An anti-hTROP-2 monoclonal antibody (0.1 μg) was added to 100 μL of the cell suspension, and they were then reacted at 4° C. for 20 minutes. The reaction solution was washed with PBS, and it was then reacted with PE-labeled anti-mouse IgG (BD Biosciences Pharmingen) (0.1 μg) (at 4° C. for 30 minutes). Thereafter, the resultant was analyzed by FACSCalibur (Becton, Dickinson and Company).
(§2) Subsequently, the reactivity of the generated anti-hTROP-2 monoclonal antibodies with human cancer cell lines (in which an hTROP-2 protein was endogenously expressed on the cell surface) was examined by FACS analysis.

[2] = target: T2, human TROP-1/EpCAM protein transiently expressed in CHO-K1 cells (human, UniProt P16422 24-314); test: FACS on CHO-K1 cells transiently expressing human EpCAM/TROP-1
T2 construct: whole, on cells; also called human EpCAM/TROP-1; hEpCAM; not shown: C-terminal myc/His tag from pcDNA3.1-hEpCAM-myc/His
T2 sequence (looked up): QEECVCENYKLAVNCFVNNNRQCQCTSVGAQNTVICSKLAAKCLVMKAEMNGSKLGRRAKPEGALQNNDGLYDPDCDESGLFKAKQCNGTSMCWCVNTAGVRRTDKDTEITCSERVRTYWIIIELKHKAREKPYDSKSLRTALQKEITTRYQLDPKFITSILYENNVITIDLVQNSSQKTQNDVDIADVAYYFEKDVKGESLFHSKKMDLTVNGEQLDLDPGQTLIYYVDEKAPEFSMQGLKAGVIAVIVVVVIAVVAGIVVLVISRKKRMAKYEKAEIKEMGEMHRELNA
Source text: (§3) Specifically, each of an expression vector (mouse TROP-2-pcDNA3.1(+), furnished by the Institute of Molecular and Cellular Biosciences, the University of Tokyo) comprising the full-length cDNA of a mouse TROP-2 gene (GenBank accession No. NM_020047, Y08830), and an expression vector (pcDNA3.1-hEpCAM-myc/His) comprising the full-length cDNA of a human TROP-1/EpCAM gene (GenBank accession No. NM_002354), was transiently introduced into CHO-K1 cells, using Lipofectamine2000 reagent (Invitrogen). Thereafter, 24 to 48 hours later, the cells were removed from a culture dish by treating them with trypsin, and a cell suspension was then prepared. The thus prepared cell suspension was successively reacted with the produced anti-hTROP-2 monoclonal antibody (0.1 μg) and with PE-labeled anti-mouse IgG, and it was then analyzed by FACSCalibur.

[3] = target: T1, human TROP-2 (hTROP-2) endogenously …; test: FACS on BxPC-3 cells, 0.1 µg antibody
Description: as §1, §2

[4] = target: T3, mouse TROP-2 protein transiently expressed in CHO-K1 cells (mouse, UniProt Q8BGV3 25-317); test: FACS on CHO-K1 cells transiently expressing mouse TROP-2
T3 construct: whole, on cells
T3 sequence (looked up): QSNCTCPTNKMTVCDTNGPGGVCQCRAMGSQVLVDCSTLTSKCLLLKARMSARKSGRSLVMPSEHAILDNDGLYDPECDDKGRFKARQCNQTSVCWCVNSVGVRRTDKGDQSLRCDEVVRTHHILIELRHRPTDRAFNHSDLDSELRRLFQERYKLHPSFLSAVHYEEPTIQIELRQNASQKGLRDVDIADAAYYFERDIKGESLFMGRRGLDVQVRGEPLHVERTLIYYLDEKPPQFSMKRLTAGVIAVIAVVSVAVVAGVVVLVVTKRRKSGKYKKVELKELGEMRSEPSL
Source text: as §3

[5] = target: T4, recombinant protein of the hTROP-2 extracellular region (human, UniProt P09758 27-263); test: antigen-coated ELISA, plate coated with 0.5 µg/ml hTROP-2 extracellular region
T4 construct: produced with baculovirus, purified on Ni Sepharose; also called hTROP-2 EC; hTROP-2-EC-His; not shown: C-terminal myc-His tag from pcDNA4/myc-His A
T4 sequence: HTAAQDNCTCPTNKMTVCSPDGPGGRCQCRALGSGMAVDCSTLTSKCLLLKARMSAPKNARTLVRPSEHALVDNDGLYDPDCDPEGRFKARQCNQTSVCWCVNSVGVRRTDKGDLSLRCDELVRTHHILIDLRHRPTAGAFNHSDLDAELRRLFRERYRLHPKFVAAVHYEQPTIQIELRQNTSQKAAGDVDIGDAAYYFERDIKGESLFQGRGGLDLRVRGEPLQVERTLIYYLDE
Description: (§4) Furthermore, antigen affinity was also examined by an ELISA method. ELISA was carried out using an ELISA plate which was coated with the recombinant protein of the hTROP-2 extracellular region as described in Example 3. Specifically, a 96-well plate (BD FALCON) was coated with a 50 μl/well recombinant protein of a hTROP-2 extracellular region that had been diluted with PBS to 0.5 μg/ml (at 4° C. overnight). Thereafter, the resultant was washed with a washing buffer (PBS containing 0.05% Tween 20), and a blocking buffer (PBS containing 2% skim milk and 0.05% Tween 20) was then added thereto (200 μl/well) to block it (at room temperature for 1 hour). The resultant was washed with a washing buffer. […] The obtained dilution samples were each added in an amount of 50 μl/well to the above-described ELISA plate (at room temperature for 2 hours). […] After the mixture had been washed with a washing buffer, a TMB (3,3′,5,5′-tetramethylbenzidine: SIGMA) substrate solution was added (50 μl/well) to the resultant to carry out a color reaction. Then, 1 M sulfuric acid (25 μl/well) was added to the reaction product to terminate the reaction. Using Microplate reader Model 550 (BioRad), an absorbance at 450 nm was measured with an absorbance at 655 nm used as a reference.

[6] = target: T5, recombinant hTACSTD2-Fc-His protein (Creative BioMart) (human, UniProt P09758 27-274, limits assumed); test: low-density antigen-coated ELISA, plate coated with 0.1 µg/mL hTACSTD2-Fc-His
T5 construct: bought protein; also called hTROP-2 (low-density antigen-coated ELISA); not shown: Fc part of the bought fusion protein; not described; His tag
T5 sequence: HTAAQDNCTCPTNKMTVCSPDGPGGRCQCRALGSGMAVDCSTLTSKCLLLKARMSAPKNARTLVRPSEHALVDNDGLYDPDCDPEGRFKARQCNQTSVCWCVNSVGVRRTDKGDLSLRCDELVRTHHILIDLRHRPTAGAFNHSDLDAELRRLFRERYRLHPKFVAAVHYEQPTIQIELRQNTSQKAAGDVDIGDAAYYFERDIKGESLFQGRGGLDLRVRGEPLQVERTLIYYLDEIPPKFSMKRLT
Description: as §4, with “Specifically, a 96-well plate (BD FALCON) was coated with a 50 μl/well recombinant protein of a hTROP-2 extracellular region that had been diluted with PBS to 0.5 μg/ml (at 4° C. overnight).” left out

[7] = target: T5, recombinant hTACSTD2-Fc-His protein …; test: low-density antigen-coated ELISA, plate coated with 0.1 µg/mL hTACSTD2-Fc-His, purified antibodies; HuK5-70 (humanized antibody); low-density ELISA, 0.1 µg/mL hTROP-2 coat
[8] = target: T4, recombinant protein of the hTROP-2 …; test: monovalent ELISA: antibody captured by anti-human IgG Fc, hTROP-2 EC titrated in solution, detected with anti-His
Description: Thereafter, coating was carried out at 4° C. overnight. Thereafter, the reaction product was washed with a washing buffer (PBS containing 0.05% Tween 20), and a blocking buffer (PBS containing 2% skim milk and 0.05% Tween 20) was then added thereto (200 μL/well) to block it (at room temperature for 1 hour). The resultant was washed with a washing buffer. […] The mixture was left at rest at room temperature for 1 hour, and the reaction product was then washed with a washing buffer. The recombinant protein of the hTROP-2 extracellular region described in Example 3 (hTROP-2 EC) was diluted with an ELISA buffer to prepare samples with a concentration range from 5 μg/mL to a series of three-fold dilutions (10 samples). The thus obtained sample was added in each amount of 50 μL/well to the plate. The mixture was left at rest at room temperature for 1 hour, and the reaction product was then washed with a washing buffer. […] The obtained mixture was left at rest at room temperature for 1 hour, and it was then washed with a washing buffer. […] The obtained mixture was left at rest at room temperature for 1 hour, and it was then washed with a washing buffer. […] Using Microplate reader Model 550 (BioRad), an absorbance at 450 nm was measured with an absorbance at 655 nm used as a reference.

[9] = target: T5, recombinant hTACSTD2-Fc-His protein …; test: low-density antigen-coated ELISA, plate coated with 0.1 µg/mL hTACSTD2-Fc-His, purified antibodies; HuK5-70-2 (R44G mutant); low-density ELISA, 0.1 µg/mL hTROP-2 coat

B2: anti-hTROP-2 monoclonal antibody clone K5-107 (antibody, mouse IgG1, V domains shown)
VH: QVQLQQPGSELVRPGASVKLSCKASGYTFTSYWMHWVKQRHGQGLEWIGNIYPGGGYTNYDEKFKSKGTLTVDTSSSTAYMHLSSLTSEDSAVYYCTRSSVFDYWGQGTTLTVSS
VL: DILLTQSPAILSVSPGERVSFSCRASQNIGTSIHWFQQRTNGSPRLLIKYASESISGIPSRFSGSGSGTDFTLSINSVESEDIADYYCQQSNSWPFTFGSGTKLEIK
notes: mouse IgG1, hybridoma FERM BP-11252
- binding result [2]: no binding (tested: 0.1 µg antibody)
- binding result [4]: no binding (tested: 0.1 µg antibody)

B3: humanized T6-16 antibody HuT6-16-1 (antibody, V domains shown)
VH: QVQLVQSGAEVKKPGASVKVSCKASGYTFTDYNMHWVRQAPGQGLEWIGYIYPYNGGTGYNQRFKSRATMTVDKSTSTAYMELRSLRSDDTAVYYCAREDYGSSPSYAMDYWGQGTMVTVSS
VL: DIVMTQSPLSLPVTPGEPASISCRSSQSLVHGNGNTYLHWYLQKPGQSPQLLIYKVSNRFSGVPDRFSGSGSGTDFTLKISRVEAEDVGVYYCSQTTHVPTFGGGTKVEIK
notes: HuT6-16 VH1 with HuT6-16 VL; also called HuT6-16-1 antibody
- EC50 [5]: 0.027 µg/mL

B5: humanized K5-70 antibody (HuK5-70) (antibody, V domains shown)
VH: QVQLVQSGAEVKKPGASVKVSCKASGYTFTIYWINWVRQAPGQRLEWIGNIYPSDSYTNYNQKFKDKATLTVDTSASTAYMELSSLRSEDTAVYYCTRTSMADYWGQGTLVTVSS
VL: EIVLTQSPATLSLSPGERATLSCRASQSIGTSIHWYQQKPGQAPRLLIKYASESISGIPARFSGSGSGTDFTLTISSLEPEDFAVYYCQQSNSWPFTFGQGTKVEIK
notes: human IgG1 / human kappa constant regions from the vectors pFUSE-CHIg-hG1 and pFUSE2-CLIg-hk; also called HuK5-70 antibody
- EC50 [6]: 0.222 µg/mL
- EC50 relative to that of the K5-70 antibody [6]: ~20 times
- EC50 [7]: 0.0334 µg/mL
- EC50 [8]: 0.006 µg/mL
- EC50 [5]: 0.022 µg/mL

The next lines start with the values.

- mean fluorescence intensity, times that with PE-labeled anti-mouse IgG alone [1]: 122 times
- binding result [2]: no binding (tested: 0.1 µg antibody)
- mean fluorescence intensity, times that with PE-labeled anti-mouse IgG alone [3]: 121 times
- binding result [4]: no binding (tested: 0.1 µg antibody)
B1: anti-hTROP-2 monoclonal antibody clone K5-116-2-1 (antibody, mouse IgG2a, V domains shown)
VH: QVQLQQPGAELVRPGASVKLSCKASGYTFTSYWITWVKQRPGQGLEWIGNIYPSDSYTNYNQKFRDKATLTVDKSSSTAYMQLSSPTSEDSAVYYCSALFDYWGQGTTLTVSS
VL: B2 VL with N28S, F36Y, T72I
notes: mouse IgG2a, hybridoma FERM BP-11253

- EC50 [6]: 0.049 µg/mL
- EC50 [5]: 0.027 µg/mL
B4: humanized T6-16 antibody HuT6-16-2 (antibody, V domains shown)
VH: B3 VH with K74T
VL: B3 VL
notes: HuT6-16 VH2 with HuT6-16 VL; also called HuT6-16-2 antibody

- EC50 [9]: 0.0114 µg/mL
B6: HuK5-70-2 antibody (HuK5-70 R44G mutant antibody) (antibody, V domains shown)
VH: B5 VH with R44G
VL: B5 VL
notes: also called HuK5-70 VH R44G; HuK5-70 VH2
